Assays:
human c-MET [1] = target: T1, human c-MET (human, UniProt P08581 25-1390); test: cell-based or functional assay
human c-MET [2] = target: T1, human c-MET; test: flow cytometry on EBC-1 cells (highly express c-MET)
Source text: (§1) A flow cytometer (Beckman, model Cytoflex) was used to detect the interaction between anti-human EGFR/c-MET bispecific antibodies and their conjugates and human gastric cancer cells MKN45 (Nanjing Cobioer Biosciences) and human gastric cancer cells overexpressing human EGFR MKN45-EGFR (Kelun-Biotech), human lung squamous cell carcinoma EBC-1 (Nanjing Cobioer Biosciences), human lung squamous cell carcinoma EBC-1-EGFR overexpressing human EGFR (Kelun-Biotech), human non-small cell lung cancer cell HCC827 (ATCC™), and human epidermal squamous cell carcinoma cell A431 (Nanjing Cobioer Biosciences). The protocol was as follows.
(§2) The adherent cells were digested with Trypsin-EDTA solution (0.25%) (Shanghai BasalMedia) and the cell density adjusted to 4.0×10⁶ per mL. The cells were washed twice with 1% BSA and resuspended in 1% BSA solution. Then 50 μL cell suspension was added to each well of a 96-well plate (the number of cells was 2×10⁵ per well). The antibody and its conjugate were diluted with 1% BSA (final concentration 10 µg/mL, 3-fold gradient dilution, a total of 11 concentration points). Then 50 μL of the diluted antibody and ADC were added to the wells of the 96-well plate and the plate was incubated at 4° C. for 60 minutes. The wells of the 96-well plate were then washed twice with 1% BSA, 50 μL of diluted secondary antibody was added to each well, and the 96-well plate was incubated at 4° C. for 30 minutes. Then the cells were washed twice with 1% BSA, and the cells were resuspended in 200 μL of 1% BSA and subjected to flow cytometry detection.

human c-MET [3] = target: T1, human c-MET; test: flow cytometry on MKN45 cells (highly express c-MET)
Source text: as §1, §2

human EGFR = target: T2, human EGFR (human, UniProt P00533 25-1210); test: flow cytometry on A431 cells (highly express EGFR)
T2 construct: whole, on cells; also called epidermal growth factor receptor; ErbB-1
Source text: as §1
as §2, with “The wells of the 96-well plate were then washed twice with 1% BSA, 50 μL of diluted secondary antibody was added to each well, and the 96-well plate was incubated at 4° C. for 30 minutes. Then the cells were washed twice with 1% BSA, and the cells were resuspended in 200 μL of 1% BSA and subjected to flow cytometry detection.” left out

T1 sequence (P08581 25-1390): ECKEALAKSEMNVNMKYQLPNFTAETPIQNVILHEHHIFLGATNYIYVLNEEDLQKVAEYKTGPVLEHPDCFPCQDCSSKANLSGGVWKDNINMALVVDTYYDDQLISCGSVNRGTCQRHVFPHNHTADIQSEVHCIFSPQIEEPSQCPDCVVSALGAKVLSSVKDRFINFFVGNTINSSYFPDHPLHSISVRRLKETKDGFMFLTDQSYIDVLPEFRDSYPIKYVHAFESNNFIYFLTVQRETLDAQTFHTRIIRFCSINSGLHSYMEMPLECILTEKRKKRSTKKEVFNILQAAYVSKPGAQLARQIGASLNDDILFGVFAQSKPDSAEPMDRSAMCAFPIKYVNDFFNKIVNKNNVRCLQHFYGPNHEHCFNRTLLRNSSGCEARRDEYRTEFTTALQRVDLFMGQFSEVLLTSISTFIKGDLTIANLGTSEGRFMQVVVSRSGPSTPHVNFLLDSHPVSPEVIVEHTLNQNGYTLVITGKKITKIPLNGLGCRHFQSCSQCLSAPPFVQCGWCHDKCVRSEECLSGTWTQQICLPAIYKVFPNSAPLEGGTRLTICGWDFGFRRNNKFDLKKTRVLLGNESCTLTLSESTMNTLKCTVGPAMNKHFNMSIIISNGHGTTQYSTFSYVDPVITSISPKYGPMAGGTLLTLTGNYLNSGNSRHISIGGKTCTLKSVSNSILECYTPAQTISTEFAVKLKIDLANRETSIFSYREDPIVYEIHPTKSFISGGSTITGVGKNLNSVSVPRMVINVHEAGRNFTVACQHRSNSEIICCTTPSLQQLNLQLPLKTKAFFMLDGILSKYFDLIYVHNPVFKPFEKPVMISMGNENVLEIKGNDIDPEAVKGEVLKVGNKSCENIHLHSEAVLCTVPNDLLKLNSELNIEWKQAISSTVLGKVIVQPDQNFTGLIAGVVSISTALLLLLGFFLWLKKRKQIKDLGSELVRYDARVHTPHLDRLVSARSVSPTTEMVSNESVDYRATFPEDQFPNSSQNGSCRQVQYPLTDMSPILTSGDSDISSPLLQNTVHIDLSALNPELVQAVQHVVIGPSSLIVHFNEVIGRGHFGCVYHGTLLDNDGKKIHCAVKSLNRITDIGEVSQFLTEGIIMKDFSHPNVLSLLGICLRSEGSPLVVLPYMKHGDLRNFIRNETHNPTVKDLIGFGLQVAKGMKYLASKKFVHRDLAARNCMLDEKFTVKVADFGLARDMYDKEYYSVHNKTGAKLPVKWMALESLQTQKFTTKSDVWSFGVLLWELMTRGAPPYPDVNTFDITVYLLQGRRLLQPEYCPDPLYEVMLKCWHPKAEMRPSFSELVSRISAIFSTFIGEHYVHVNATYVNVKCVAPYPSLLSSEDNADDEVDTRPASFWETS

B1: ADC 10B-A-05 (bispecific antibody, human IgG1, kappa)
light: not shown
heavy: not shown
chain: DIQMTQSPSSLSASVGDRVTITCKSSQSLLYTSSQKNYLAWYQQKPGKAPKLLIYWASTRESGVPSRFSGSGSGTDFTLTISSLQPEDFATYYCQQYYAYPWTFGQGTKVEIKGGGGSGGGGSGGGGSEVQLVESGGGLVQPGGSLRLSCAASGYTFTSYWLHWVRQAPGKGLEWVGMIDPSNSDTRFNPNFKDRFTISADTSKNTAYLQMNSLRAEDTAVYYCATYRSYVTPLDYWGQGTLVTVSSGGGGDKTHTCPPCPAPELLGGPSVFLFPPKPKDTLMISRTPEVTCVVVDVSHEDPEVKFNWYVDGVEVHNAKTKPREEQYNSTYRVVSVLTVLHQDWLNGKEYKCKVSNKALPAPIEKTISKAKGQPREPQVCTLPPSREEMTKNQVSLSCAVKGFYPSDIAVEWESNGQPENNYKTTPPVLDSDGSFFLVSKLTVDKSRWQQGNVFSCSVMHEALHNHYTQKSLSLSPGK
modifications: linker-payload A-05 on reduced Cys sulfhydryls (sites not given); DAR of the whole ADC approximately 6
IC50, in vitro cell killing (CCK8) on EBC-1 cells (human c-MET [1]): 0.59 nM | IC50, in vitro cell killing (CCK8) on MKN45 cells (human c-MET [1]): 0.33 nM | EC50 (human c-MET [2]): 1.91 nM | EC50 (human c-MET [3]): 2.14 nM

B2: ADC 41B-A-05 (bispecific antibody, human IgG1, kappa, L234A L235A)
light: not shown
heavy: not shown
chain: DIQMTQSPSSLSASVGDRVTITCKSSQSLLYTSSQKNYLAWYQQKPGKAPKLLIYWASTRESGVPSRFSGSGSGTDFTLTISSLQPEDFATYYCQQYYAYPWTFGCGTKVEIKRTVAAPSVFIFPPSDEQLKSGTASVVCLLNNFYPREAKVQWKVDNALQSGNSQESVTEQDSKDSTYSLSSTLTLSKADYEKHKVYACEVTHQGLSSPVTKSFNRGECGGGGSGGGGSGGGGSGGGGSGGGGSGGGGSGGGGSGGGGSEVQLVESGGGLVQPGGSLRLSCAASGYTFTSYWLHWVRQAPGKCLEWVGMIDPSNSDTRFNPNFKDRFTISADTSKNTAYLQMNSLRAEDTAVYYCATYRSYVTPLDYWGQGTLVTVSSASTKGPSVFPLAPSSKSTSGGTAALGCLVKDYFPEPVTVSWNSGALTSGVHTFPAVLQSSGLYSLSSVVTVPSSSLGTQTYICNVNHKPSNTKVDKKVEPKSCDKTHTCPPCPAPEAAGGPSVFLFPPKPKDTLMISRTPEVTCVVVDVSHEDPEVKFNWYVDGVEVHNAKTKPREEQYNSTYRVVSVLTVLHQDWLNGKEYKCKVSNKALAAPIEKTISKAKGQPREPQVCTLPPSRDELTKNQVSLSCAVKGFYPSDIAVEWESNGQPENNYKTTPPVLDSDGSFFLVSKLTVDKSRWQQGNVFSCSVMHEALHNHYTQKSLSLSPGK
modifications: linker-payload A-05 on reduced Cys sulfhydryls (sites not given); DAR of the whole ADC approximately 8
IC50, in vitro cell killing (CCK8) on EBC-1 cells (human c-MET [1]): 0.44 nM | IC50, in vitro cell killing (CCK8) on MKN45 cells (human c-MET [1]): 0.42 nM | EC50 (human EGFR): 0.48 nM | EC50 (human c-MET [3]): 0.69 nM

B3: BsAb 41B (bispecific antibody, human IgG1, kappa, L234A L235A)
light: not shown
heavy: not shown
chain: DIQMTQSPSSLSASVGDRVTITCKSSQSLLYTSSQKNYLAWYQQKPGKAPKLLIYWASTRESGVPSRFSGSGSGTDFTLTISSLQPEDFATYYCQQYYAYPWTFGCGTKVEIKRTVAAPSVFIFPPSDEQLKSGTASVVCLLNNFYPREAKVQWKVDNALQSGNSQESVTEQDSKDSTYSLSSTLTLSKADYEKHKVYACEVTHQGLSSPVTKSFNRGECGGGGSGGGGSGGGGSGGGGSGGGGSGGGGSGGGGSGGGGSEVQLVESGGGLVQPGGSLRLSCAASGYTFTSYWLHWVRQAPGKCLEWVGMIDPSNSDTRFNPNFKDRFTISADTSKNTAYLQMNSLRAEDTAVYYCATYRSYVTPLDYWGQGTLVTVSSASTKGPSVFPLAPSSKSTSGGTAALGCLVKDYFPEPVTVSWNSGALTSGVHTFPAVLQSSGLYSLSSVVTVPSSSLGTQTYICNVNHKPSNTKVDKKVEPKSCDKTHTCPPCPAPEAAGGPSVFLFPPKPKDTLMISRTPEVTCVVVDVSHEDPEVKFNWYVDGVEVHNAKTKPREEQYNSTYRVVSVLTVLHQDWLNGKEYKCKVSNKALAAPIEKTISKAKGQPREPQVCTLPPSRDELTKNQVSLSCAVKGFYPSDIAVEWESNGQPENNYKTTPPVLDSDGSFFLVSKLTVDKSRWQQGNVFSCSVMHEALHNHYTQKSLSLSPGK
notes: Fab-scFab-Fc (KIH) format; anti-EGFR Fab, anti-c-MET scFab; also called bispecific antibody 41B
EC50 (human EGFR): 1.34 nM | EC50 (human c-MET [3]): 1.77 nM

— patent US20250161474A1 (SICHUAN KELUN BIOTECH BIOPHARMACEUTICAL, published 2025)
